Measured values: patent US20200297760A1 (JUNO THERAPEUTICS, published 2020)
Each block holds one binder with its values, some of them ahead of it.

Legend:
[1] = molecular target: T1, HLA-A*02:01 (human); experiment: REVEAL MHC-peptide binding assay, recombinant HLA
T1 construct: recombinant MHC class I molecule incubated with the synthetic peptide (REVEAL, ProImmune)
Procedure: (§1) Specifically, assessment was of a series of overlapping 9-mer peptides derived from the sequence […] (set forth in SEQ ID NO: 7), which contains a portion of the CD28 transmembrane domain and 4-1BB costimulatory domain spanning the junction between the domains (bond joining the two amino acids noted in underline). In addition, a series of overlapping 9-mer peptides of each of a number of different variants of this portion also were assessed, each variant containing a mutation or mutations in this region as described in Example 2.
(§2) The various 9-mer overlapping peptides were synthesized and their purity tested by MALDI-TOF Mass Spectrometry.

[2] = molecular target: T2, HLA-A*03:01 (human); experiment: REVEAL MHC-peptide binding assay, recombinant HLA
T2 construct: recombinant MHC class I molecule incubated with the synthetic peptide (REVEAL, ProImmune)
Procedure: as §1, §2

[3] = molecular target: HLA-B*08:01 (recombinant MHC class I molecule) (human); experiment: REVEAL MHC-peptide binding assay, recombinant HLA-B*08:01
Procedure: as §1, §2

[4] = molecular target: HLA-A*11:01 (recombinant MHC class I molecule) (human); experiment: REVEAL MHC-peptide binding assay, recombinant HLA-A*11:01
Procedure: as §1, §2

In Vitro Score [1]: 33.5 % of positive control peptide | In Vitro Score [2]: 20.3 % of positive control peptide
B2: IFWVQRGSK (peptide)
peptide: IFWVQRGSK
notes: synthetic 9-mer variant; the entry already carries the changes

In Vitro Score [1]: 2.9 % of positive control peptide | In Vitro Score [2]: 19.5 % of positive control peptide
B3: IFWVLRGRK (peptide)
peptide: IFWVLRGRK
notes: synthetic 9-mer variant; the entry already carries the change

In Vitro Score [3]: 0 score, % of positive control peptide | In Vitro Score [4]: 103 score, % of positive control peptide
B5: Synthetic peptide IFWVQRGSK (peptide)
peptide: IFWVQRGSK

In Vitro Score [3]: 0 score, % of positive control peptide | In Vitro Score [4]: 29.3 score, % of positive control peptide
B6: Synthetic peptide IFWVLRGRK (peptide)
peptide: IFWVLRGRK

In Vitro Score [3]: 0.2 score, % of positive control peptide | In Vitro Score [4]: 17.2 score, % of positive control peptide
B12: Synthetic peptide AFIIFWVLR (peptide)
peptide: AFIIFWVLR

In Vitro Score [3]: 11.4 score, % of positive control peptide | In Vitro Score [4]: 3.8 score, % of positive control peptide
B15: Synthetic peptide WVQRGAKKL (peptide)
peptide: WVQRGAKKL

In Vitro Score [4]: 5.9 score, % of positive control peptide
B16: Synthetic peptide WVQRGSKKL (peptide)
peptide: WVQRGSKKL

In Vitro Score [3]: 19.2 score, % of positive control peptide | In Vitro Score [4]: 5.6 score, % of positive control peptide
B17: Synthetic peptide WVHRGRKKL (peptide)
peptide: WVHRGRKKL

In Vitro Score [3]: 4.3 score, % of positive control peptide | In Vitro Score [4]: 6.7 score, % of positive control peptide
B20: Synthetic peptide WVKRGRKKS (peptide)
peptide: WVKRGRKKS

In Vitro Score [3]: 4 score, % of positive control peptide | In Vitro Score [4]: 3.2 score, % of positive control peptide
B21: Synthetic peptide WVLRGRKKL (peptide)
peptide: WVLRGRKKL

In Vitro Score [3]: 0 score, % of positive control peptide | In Vitro Score [4]: 29 score, % of positive control peptide
B23: Synthetic peptide IIFWVQRGN (peptide)
peptide: IIFWVQRGN

In Vitro Score [3]: 0.1 score, % of positive control peptide | In Vitro Score [4]: 16.9 score, % of positive control peptide
B24: Synthetic peptide IIFWVQRGS (peptide)
peptide: IIFWVQRGS

In Vitro Score [1]: 1.5 % of positive control peptide | In Vitro Score [2]: 2.9 % of positive control peptide
B30: FWVSRGRKK (peptide)
peptide: FWVSRGRKK
notes: as for B3

In Vitro Score [2]: 3.6 % of positive control peptide
B31: FWVKRGNKK (peptide)
peptide: FWVKRGNKK
notes: as for B3

In Vitro Score [1]: 5.2 % of positive control peptide | In Vitro Score [2]: 6.4 % of positive control peptide
B33: FWVQRGRKK (peptide)
peptide: FWVQRGRKK
notes: as for B3

In Vitro Score [1]: 2.2 % of positive control peptide | In Vitro Score [2]: 2.7 % of positive control peptide
B34: FWVQRGAKK (peptide)
peptide: FWVQRGAKK
notes: as for B2

In Vitro Score [1]: 3.3 % of positive control peptide | In Vitro Score [2]: 0.4 % of positive control peptide
B35: FWVLRGRKK (peptide)
peptide: FWVLRGRKK
notes: as for B3

In Vitro Score [1]: 4.3 % of positive control peptide | In Vitro Score [2]: 4.7 % of positive control peptide
B37: FWVKRGAKK (peptide)
peptide: FWVKRGAKK
notes: as for B3

In Vitro Score [1]: 13.5 % of positive control peptide | In Vitro Score [2]: 5 % of positive control peptide
B38: FWVARGRKK (peptide)
peptide: FWVARGRKK
notes: as for B3

In Vitro Score [1]: 1.9 % of positive control peptide | In Vitro Score [2]: 5.9 % of positive control peptide
B39: FWVKRGSKK (peptide)
peptide: FWVKRGSKK
notes: as for B3

In Vitro Score [2]: 2.7 % of positive control peptide
B41: FWVKRGLKK (peptide)
peptide: FWVKRGLKK
notes: as for B3

In Vitro Score [1]: 2.6 % of positive control peptide | In Vitro Score [2]: 4.1 % of positive control peptide
B42: FWVKRGHKK (peptide)
peptide: FWVKRGHKK
notes: as for B3

In Vitro Score [3]: 0 score, % of positive control peptide | In Vitro Score [4]: 6.3 score, % of positive control peptide
B46: Synthetic peptide FWVSRGRKK (peptide)
peptide: FWVSRGRKK

In Vitro Score [3]: 0.3 score, % of positive control peptide | In Vitro Score [4]: 13.2 score, % of positive control peptide
B49: Synthetic peptide FWVKRGAKK (peptide)
peptide: FWVKRGAKK

In Vitro Score [3]: 0 score, % of positive control peptide | In Vitro Score [4]: 5.6 score, % of positive control peptide
B50: Synthetic peptide FWVHRGRKK (peptide)
peptide: FWVHRGRKK

In Vitro Score [3]: 0.1 score, % of positive control peptide | In Vitro Score [4]: 5.6 score, % of positive control peptide
B51: Synthetic peptide FWVKRGSKK (peptide)
peptide: FWVKRGSKK

In Vitro Score [3]: 6.3 score, % of positive control peptide | In Vitro Score [4]: 25.3 score, % of positive control peptide
B52: Synthetic peptide FWVKRGLKK (peptide)
peptide: FWVKRGLKK

In Vitro Score [3]: 0.1 score, % of positive control peptide | In Vitro Score [4]: 7.3 score, % of positive control peptide
B53: Synthetic peptide FWVKRGNKK (peptide)
peptide: FWVKRGNKK

In Vitro Score [3]: 0 score, % of positive control peptide | In Vitro Score [4]: 5.9 score, % of positive control peptide
B56: Synthetic peptide FWVQRGNKK (peptide)
peptide: FWVQRGNKK

In Vitro Score [1]: 5.3 % of positive control peptide | In Vitro Score [2]: 26.6 % of positive control peptide
B57: IIFWVKRGH (peptide)
peptide: IIFWVKRGH
notes: as for B3

In Vitro Score [1]: 22.4 % of positive control peptide | In Vitro Score [2]: 4.5 % of positive control peptide
B58: IIFWVQRGS (peptide)
peptide: IIFWVQRGS
notes: as for B2

In Vitro Score [1]: 13 % of positive control peptide | In Vitro Score [2]: 3.6 % of positive control peptide
B59: IIFWVQRGN (peptide)
peptide: IIFWVQRGN
notes: as for B2

Continued, binder first:

B1: IFWVKRGRK (peptide)
peptide: IFWVKRGRK
notes: synthetic 9-mer of the CD28-4-1BB junction; mutation: none
In Vitro Score [1]: 4.5 % of positive control peptide | In Vitro Score [2]: 20.5 % of positive control peptide

B4: Synthetic peptide IFWVKRGRK (peptide)
peptide: IFWVKRGRK
In Vitro Score [3]: 0.4 score, % of positive control peptide | In Vitro Score [4]: 29.3 score, % of positive control peptide

B7: Synthetic peptide FIIFWVKRG (peptide)
peptide: FIIFWVKRG
In Vitro Score [3]: 0.1 score, % of positive control peptide | In Vitro Score [4]: 0.4 score, % of positive control peptide

B8: Synthetic peptide FIIFWVLRG (peptide)
peptide: FIIFWVLRG
In Vitro Score [3]: 0.2 score, % of positive control peptide | In Vitro Score [4]: 2.4 score, % of positive control peptide

B9: Synthetic peptide FIIFWVQRG (peptide)
peptide: FIIFWVQRG
In Vitro Score [3]: 0.6 score, % of positive control peptide | In Vitro Score [4]: 1.5 score, % of positive control peptide

B10: Synthetic peptide FIIFWVSRG (peptide)
peptide: FIIFWVSRG
In Vitro Score [3]: 0.4 score, % of positive control peptide | In Vitro Score [4]: 5.1 score, % of positive control peptide

B11: Synthetic peptide AFIIFWVKR (peptide)
peptide: AFIIFWVKR
In Vitro Score [3]: 1.9 score, % of positive control peptide | In Vitro Score [4]: 25.9 score, % of positive control peptide

B13: Synthetic peptide AFIIFWVQR (peptide)
peptide: AFIIFWVQR
In Vitro Score [3]: 0 score, % of positive control peptide | In Vitro Score [4]: 15 score, % of positive control peptide

B14: Synthetic peptide WVKRGRKKL (peptide)
peptide: WVKRGRKKL
In Vitro Score [3]: 28.5 score, % of positive control peptide | In Vitro Score [4]: 4.8 score, % of positive control peptide

B18: Synthetic peptide WVSRGRKKL (peptide)
peptide: WVSRGRKKL
In Vitro Score [3]: 6.2 score, % of positive control peptide | In Vitro Score [4]: 4.4 score, % of positive control peptide

B19: Synthetic peptide WVKRGLKKL (peptide)
peptide: WVKRGLKKL
In Vitro Score [3]: 65.7 score, % of positive control peptide | In Vitro Score [4]: 22.1 score, % of positive control peptide

B22: Synthetic peptide IIFWVKRGH (peptide)
peptide: IIFWVKRGH
In Vitro Score [3]: 0.1 score, % of positive control peptide | In Vitro Score [4]: 19.5 score, % of positive control peptide

B25: Synthetic peptide VAFIIFWVA (peptide)
peptide: VAFIIFWVA
In Vitro Score [3]: 0 score, % of positive control peptide | In Vitro Score [4]: 2.8 score, % of positive control peptide

B26: Synthetic peptide VAFIIFWVL (peptide)
peptide: VAFIIFWVL
In Vitro Score [3]: 0 score, % of positive control peptide | In Vitro Score [4]: 0.2 score, % of positive control peptide

B27: Synthetic peptide VAFIIFWVH (peptide)
peptide: VAFIIFWVH
In Vitro Score [3]: 0 score, % of positive control peptide | In Vitro Score [4]: 12.3 score, % of positive control peptide

B28: Synthetic peptide VAFIIFWVQ (peptide)
peptide: VAFIIFWVQ
In Vitro Score [3]: 0.2 score, % of positive control peptide | In Vitro Score [4]: 3.9 score, % of positive control peptide

B29: FWVKRGRKK (peptide)
peptide: FWVKRGRKK
notes: as for B1
In Vitro Score [1]: 3.5 % of positive control peptide | In Vitro Score [2]: 2.2 % of positive control peptide

B32: FWVQRGSKK (peptide)
peptide: FWVQRGSKK
notes: as for B2
In Vitro Score [1]: 0.8 % of positive control peptide | In Vitro Score [2]: 1.9 % of positive control peptide

B36: FWVQRGNKK (peptide)
peptide: FWVQRGNKK
notes: as for B2
In Vitro Score [1]: 3.1 % of positive control peptide | In Vitro Score [2]: 1.3 % of positive control peptide

B40: FWVHRGRKK (peptide)
peptide: FWVHRGRKK
notes: as for B3
In Vitro Score [1]: 1.6 % of positive control peptide | In Vitro Score [2]: 3.6 % of positive control peptide

B43: Synthetic peptide FWVKRGRKK (peptide)
peptide: FWVKRGRKK
In Vitro Score [3]: 0 score, % of positive control peptide | In Vitro Score [4]: 6.5 score, % of positive control peptide

B44: Synthetic peptide FWVQRGAKK (peptide)
peptide: FWVQRGAKK
In Vitro Score [3]: 0 score, % of positive control peptide | In Vitro Score [4]: 18.3 score, % of positive control peptide

B45: Synthetic peptide FWVARGRKK (peptide)
peptide: FWVARGRKK
In Vitro Score [3]: 0 score, % of positive control peptide

B47: Synthetic peptide FWVQRGSKK (peptide)
peptide: FWVQRGSKK
In Vitro Score [3]: 0 score, % of positive control peptide | In Vitro Score [4]: 6.8 score, % of positive control peptide

B48: Synthetic peptide FWVKRGHKK (peptide)
peptide: FWVKRGHKK
In Vitro Score [3]: 0.4 score, % of positive control peptide | In Vitro Score [4]: 27.6 score, % of positive control peptide

B54: Synthetic peptide FWVQRGRKK (peptide)
peptide: FWVQRGRKK
In Vitro Score [3]: 1.9 score, % of positive control peptide | In Vitro Score [4]: 5.7 score, % of positive control peptide

B55: Synthetic peptide FWVLRGRKK (peptide)
peptide: FWVLRGRKK
In Vitro Score [3]: 0 score, % of positive control peptide | In Vitro Score [4]: 5 score, % of positive control peptide
